# Positions count from the first letter of the chain named. Starred links: 1 amine or outer side, 2 acyl side, 3 side chain; linkers in the order of their positions; H or OH if unused. Non-standard residues stand in square brackets, D forms with d. Groups on a side chain read outwards from the residue. No end group written: not given here. *: point of attachment. C20 diacid = O=C(O)CCCCCCCCCCCCCCCCCCC(=O)*; γGlu = O=C(O)[C@H](CCC(=O)[*:2])N[*:1]; εLys = N[C@@H](CCCCN[*:1])C(=O)[*:2]; AEEA = NCCOCCOCC(=O)O; Aib = CC(C)(N)C(=O)O
# T1: NPY2 receptor (human (printed as hNPY2R), UniProt P49146 1-381)
# T1 sequence (looked up): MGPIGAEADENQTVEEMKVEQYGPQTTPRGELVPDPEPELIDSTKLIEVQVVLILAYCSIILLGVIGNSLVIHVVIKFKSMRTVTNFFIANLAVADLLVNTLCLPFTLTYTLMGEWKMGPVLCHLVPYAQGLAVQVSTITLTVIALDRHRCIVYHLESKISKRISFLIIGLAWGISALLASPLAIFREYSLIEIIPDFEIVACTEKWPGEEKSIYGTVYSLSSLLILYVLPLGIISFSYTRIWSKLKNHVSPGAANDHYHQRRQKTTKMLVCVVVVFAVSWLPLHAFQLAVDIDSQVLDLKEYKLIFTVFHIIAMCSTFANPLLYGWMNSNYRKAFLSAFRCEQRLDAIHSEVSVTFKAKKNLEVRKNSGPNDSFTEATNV
# T2: GIP receptor (human (printed as hGIPR), UniProt P48546 22-466)
# T2 sequence (looked up): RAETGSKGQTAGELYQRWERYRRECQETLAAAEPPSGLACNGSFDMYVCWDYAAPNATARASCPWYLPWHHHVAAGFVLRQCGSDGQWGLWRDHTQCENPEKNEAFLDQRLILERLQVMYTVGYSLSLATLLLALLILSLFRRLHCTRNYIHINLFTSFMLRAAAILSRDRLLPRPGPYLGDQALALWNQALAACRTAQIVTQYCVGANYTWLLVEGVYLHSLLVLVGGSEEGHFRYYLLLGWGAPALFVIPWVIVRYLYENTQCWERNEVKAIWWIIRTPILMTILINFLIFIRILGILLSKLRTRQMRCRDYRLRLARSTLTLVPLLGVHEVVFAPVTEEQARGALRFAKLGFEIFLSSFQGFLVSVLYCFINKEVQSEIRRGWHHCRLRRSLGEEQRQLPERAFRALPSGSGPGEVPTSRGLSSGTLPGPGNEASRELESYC
# B1: Compound 209 (peptide)
# peptide: YXEGTFTSDYSIXLELQAQXAFVEWLIKGGPSSGASLRHYYNWLTRQRY
# modifications: Aib at 2, 13, 20; K28 side chain carries C20DA-gGlu-gGlu-gGlu-gGlu-gGlu-gGlu-eLys; C-terminal amide
# B2: Compound 217 (peptide)
# peptide: B1 peptide with L16K, S33E, G34Y, A35V
# modifications: Aib at 2, 13, 20; K28 side chain carries C20DA-gGlu-gGlu-gGlu-gGlu-gGlu-gGlu-eLys; C-terminal amide
# B3: Compound 221 (peptide)
# peptide: B1 peptide with L16K
# modifications: Aib at 2, 13, 20; K28 side chain carries C20DA-gGlu-gGlu-gGlu-gGlu-gGlu-gGlu-eLys; C-terminal amide
# B4: Compound 214 (peptide)
# peptide: B1 peptide with L16K
# modifications: Aib at 2, 13, 20; D-Tyr at 49; K28 side chain carries C20DA-gGlu-gGlu-gGlu-gGlu-gGlu-gGlu-eLys; C-terminal amide
# B5: Compound 210 (peptide)
# peptide: B1 peptide with L16K, R38L
# modifications: Aib at 2, 13, 20; K28 side chain carries C20DA-gGlu-gGlu-gGlu-gGlu-gGlu-gGlu-eLys; C-terminal amide
# B6: Compound 218 (peptide)
# peptide: B1 peptide with L16K, W43X
# modifications: Aib at 2, 13, 20, 43; K28 side chain carries C20DA-gGlu-gGlu-gGlu-gGlu-gGlu-gGlu-eLys; C-terminal amide
# Target: T1, NPY2 receptor
# Experiment: cell-based or functional assay
EC50 hNPY2R 0.5% hP (CreLuc) [nM],EC50 hNPY2R 100% hP (CreLuc) [nM],Binder
14.9,50.2,Y[Aib]EGTFTSDYSI[Aib]LEKQAQ[Aib]AFVEWLIK([εLys-γGlu-γGlu-γGlu-γGlu-γGlu-γGlu-γGlu-C20 diacid])GGPSSGASLRHYYNWLTRQRY-NH2 (also: TFA salt) [Compound 225]
15.4,59.1,Y[Aib]EGTFTSDYSI[Aib]LEKQAQ[Aib]AFVEWLIK([εLys-γGlu-γGlu-γGlu-γGlu-γGlu-C20 diacid])GGPEEGASLRHYYNWLTRQRY-NH2 (also: TFA salt) [Compound 230]
13.2,57.5,Y[Aib]EGTFTSDYSI[Aib]LEKQAQ[Aib]AFVQWLIK([γGlu-γGlu-γGlu-γGlu-γGlu-γGlu-C20 diacid])GGPSEGASLRHYYNWLTRQRY-NH2 (also: TFA salt) [Compound 223]
11.4,46.2,Y[Aib]EGTFTSDYSI[Aib]LEKQAQ[Aib]AFVEWLIK([AEEA-AEEA-γGlu-γGlu-γGlu-γGlu-C20 diacid])GGPSEPASLRHYYNWLTRQRY-NH2 (also: TFA salt) [Compound 226]
12.8,43.4,Y[Aib]EGTFTSDYSI[Aib]LEKQAE[Aib]AFVQWLIK([AEEA-AEEA-γGlu-γGlu-γGlu-γGlu-C20 diacid])GGPSEGASLRHYYNWLTRQRY-NH2 (also: TFA salt) [Compound 219]
35.2,171,B1
18.6,35.4,B2
12.4,49.3,B3
> 99.9,283,B4
54.1,430,B5
87.4,623,B6

# Target: GLP-1 receptor (human (printed as hGLP1R), UniProt P43220 24-463)
# Experiment: cell-based or functional assay
EC50 hGLP1R 0.5% hP (CreLuc) [nM],EC50 hGLP1R 100% hP (CreLuc) [nM],Binder
0.12,1.93,Y[Aib]EGTFTSDYSI[Aib]LEKQAQ[Aib]AFVEWLIK([εLys-γGlu-γGlu-γGlu-γGlu-γGlu-γGlu-γGlu-C20 diacid])GGPSSGASLRHYYNWLTRQRY-NH2 (also: TFA salt) [Compound 225]
0.29,8.23,Y[Aib]EGTFTSDYSI[Aib]LEKQAQ[Aib]AFVEWLIK([εLys-γGlu-γGlu-γGlu-γGlu-γGlu-C20 diacid])GGPEEGASLRHYYNWLTRQRY-NH2 (also: TFA salt) [Compound 230]
0.18,4.39,Y[Aib]EGTFTSDYSI[Aib]LEKQAQ[Aib]AFVQWLIK([γGlu-γGlu-γGlu-γGlu-γGlu-γGlu-C20 diacid])GGPSEGASLRHYYNWLTRQRY-NH2 (also: TFA salt) [Compound 223]
0.24,7.6,Y[Aib]EGTFTSDYSI[Aib]LEKQAQ[Aib]AFVEWLIK([AEEA-AEEA-γGlu-γGlu-γGlu-γGlu-C20 diacid])GGPSEPASLRHYYNWLTRQRY-NH2 (also: TFA salt) [Compound 226]
0.61,16.1,Y[Aib]EGTFTSDYSI[Aib]LEKQAE[Aib]AFVQWLIK([AEEA-AEEA-γGlu-γGlu-γGlu-γGlu-C20 diacid])GGPSEGASLRHYYNWLTRQRY-NH2 (also: TFA salt) [Compound 219]
0.48,16.7,B1
1.34,17.2,B2
0.11,2.23,B3
0.19,2.65,B4
0.19,3.39,B5
0.16,3.3,B6

# Target: T2, GIP receptor
# Experiment: cell-based or functional assay
EC50 hGIPR 0.5% hP (CreLuc) [nM],EC50 hGIPR 100% hP (CreLuc) [nM],Binder
0.28,1.23,Y[Aib]EGTFTSDYSI[Aib]LEKQAQ[Aib]AFVEWLIK([εLys-γGlu-γGlu-γGlu-γGlu-γGlu-γGlu-γGlu-C20 diacid])GGPSSGASLRHYYNWLTRQRY-NH2 (also: TFA salt) [Compound 225]
0.28,1.43,Y[Aib]EGTFTSDYSI[Aib]LEKQAQ[Aib]AFVEWLIK([εLys-γGlu-γGlu-γGlu-γGlu-γGlu-C20 diacid])GGPEEGASLRHYYNWLTRQRY-NH2 (also: TFA salt) [Compound 230]
0.39,3.16,Y[Aib]EGTFTSDYSI[Aib]LEKQAQ[Aib]AFVQWLIK([γGlu-γGlu-γGlu-γGlu-γGlu-γGlu-C20 diacid])GGPSEGASLRHYYNWLTRQRY-NH2 (also: TFA salt) [Compound 223]
0.43,2.6,Y[Aib]EGTFTSDYSI[Aib]LEKQAQ[Aib]AFVEWLIK([AEEA-AEEA-γGlu-γGlu-γGlu-γGlu-C20 diacid])GGPSEPASLRHYYNWLTRQRY-NH2 (also: TFA salt) [Compound 226]
0.46,2.43,Y[Aib]EGTFTSDYSI[Aib]LEKQAE[Aib]AFVQWLIK([AEEA-AEEA-γGlu-γGlu-γGlu-γGlu-C20 diacid])GGPSEGASLRHYYNWLTRQRY-NH2 (also: TFA salt) [Compound 219]
0.81,8.57,B1
0.74,8.85,B2
0.14,0.92,B3
0.23,1.81,B4
0.28,2.3,B5
0.36,2.35,B6
